Data on 18 substances can be found in US6495144.

Series [1] concerns CBF1 + EBNA2 PI326SR (CR6) PI326SR (Homo sapiens / Epstein-Barr virus). The series can be described thus: EMSA. Conditions: supershifted complex relative to wild-type. In general terms: In EMSA bound probe runs differently from free probe, usually more slowly.
Series [2] concerns CBF1 + EBNA2 WW323SR (CR6) WW323SR (Homo sapiens / Epstein-Barr virus). The series can be described thus: EMSA. Conditions: no supershifted complex.
The test system of series [3] is CBF1 + EBNA2 SR360VD (PKC) SR360VD (Homo sapiens / Epstein-Barr virus). The experiment in a line: EMSA. The conditions noted are these: supershifted complex relative to wild-type.
Series [4] deals with CBF1 + EBNA2 LGL389SRT (CR7) LGL389SRT (Homo sapiens / Epstein-Barr virus). The experiment in a line: EMSA. Conditions: supershifted complex relative to wild-type.
Series [5] deals with CBF1 + EBNA2 GP320SR (CR6) GP320SR (Homo sapiens / Epstein-Barr virus). The experiment in a line: EMSA. Conditions: supershifted complex relative to wild-type.
Series [6] deals with CBF1 + type A EBNA2 252-425 complex (Homo sapiens / Epstein-Barr virus). The experiment in a line: EMSA. The conditions noted are these: supershifted EBNA2/CBF1 complex, reference; EBNA2 tethered through CBF1.
Series [7] has as its system CBF1 + EBNA2 del344-357 del344-357 (Homo sapiens / Epstein-Barr virus). The series can be described thus: EMSA. Conditions: supershifted complex relative to wild-type.
The subject of series [8] is CBF1 + EBNA2 del252-309,398-425 del252-309,del398-425 (Homo sapiens / Epstein-Barr virus). The series can be described thus: EMSA. The conditions noted are these: no supershifted complex.
The test system of series [9] is CBF1 + EBNA2 del343-425 del343-425 (Homo sapiens / Epstein-Barr virus). The series can be described thus: EMSA. The conditions noted are these: no stable supershifted complex; partially competed CBF1 complex.
The subject of series [10] is CBF1 + EBNA2 del376-425 del376-425 (Homo sapiens / Epstein-Barr virus). The series can be described thus: EMSA. Conditions: supershifted complex relative to wild-type.
For series [11], the system named is CBF1 + EBNA2 II307SR (CR5) II307SR (Homo sapiens / Epstein-Barr virus). The series can be described thus: EMSA. The conditions noted are these: supershifted complex relative to wild-type.
The test system of series [12] is CBF1 + EBNA2 del252-366 del252-366 (Homo sapiens / Epstein-Barr virus). The series can be described thus: EMSA. The conditions noted are these: no supershifted complex.
In series [13] the target is CBF1/RBPJk (UniProt Q06330). The series can be described thus: EMSA supershift with heparin-agarose purified CBF1 and Cp CBF1 site probe; phosphoimager, relative to wild-type EBNA2(252-425).
In the next series the target is GAL4-CBF1 (KLV249AAA) (UniProt P04386). The experiment in a line: cell-based or functional assay.
The next series has as its target GAL4-CBF1 (wild-type) (UniProt P04386). The series can be described thus: cell-based or functional assay.
For the next series, the target named is GAL4CBF1 (EEF233AAA) (UniProt P04386). The experiment in a line: cell-based or functional assay.
The target in series [14] is CBF1/RBPJk (UniProt Q06330). The series can be described thus: cell-based or functional assay.

Sequence of CBF1/RBPJk (Q06330 whole entry, the tested form may be a part): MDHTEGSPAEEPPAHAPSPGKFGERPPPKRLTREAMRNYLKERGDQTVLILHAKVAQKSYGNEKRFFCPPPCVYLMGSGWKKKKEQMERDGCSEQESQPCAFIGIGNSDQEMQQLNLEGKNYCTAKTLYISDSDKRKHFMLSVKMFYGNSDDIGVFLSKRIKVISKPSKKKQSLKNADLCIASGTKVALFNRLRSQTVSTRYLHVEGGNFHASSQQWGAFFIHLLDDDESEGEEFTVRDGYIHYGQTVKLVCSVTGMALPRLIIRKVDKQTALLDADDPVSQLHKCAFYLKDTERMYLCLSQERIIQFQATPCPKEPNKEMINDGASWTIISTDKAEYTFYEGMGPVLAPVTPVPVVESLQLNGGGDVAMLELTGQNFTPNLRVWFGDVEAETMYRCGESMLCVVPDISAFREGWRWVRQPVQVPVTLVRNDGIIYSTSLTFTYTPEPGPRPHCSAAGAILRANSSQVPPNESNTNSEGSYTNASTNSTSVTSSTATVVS

As to Cp CBF1 binding site 30-bp probe, the binding signal was 5% in series [1]; less than 1% in series [2]; 60% in series [3]; 50% in series [4]; 90% in series [5]; 100% in series [6]. For the same substance, the binding signal in [7] is 100%; in series [8], less than 1%; in series [9], less than 1%; in [10], 10%; in [11], 20%; in series [12] it was less than 1%.
As to “EBNA2 252-425 II307SR (CR5) (from UniProt P12978 252-425)”, the % Complex formation in the series with CBF1/RBPJk [13] stood at 20%.
Consider “EBNA2 252-425 del252-309,398-425 (from UniProt P12978 310-397)”, for which the % Complex formation in the series with CBF1/RBPJk [13] was less than 1%.
On the same count and under the same terms, in the case of “EBNA2 252-425 del252-366 (from UniProt P12978 367-425)” it was less than 1%; in that of “EBNA2 252-425 del343-425 (from UniProt P12978 252-342)”, less than 1%; in that of “EBNA2 252-425 del344-357 (from UniProt P12978 252-343; P12978 358-425)”, 100%.
As for “EBNA2 252-425 del376-425 (from UniProt P12978 252-375)”, the % Complex formation with CBF1/RBPJk [13] is 10%.
Take “EBNA2 (effector of Table 2) (from UniProt P12978 1-487)”: in the series with GAL4-CBF1 (KLV249AAA), the Relative CAT Activity (relative to CAT reporter alone) was found to be 21.
Take “Notch1IC (from UniProt Q01705 1751-2531) (receptor)”: the figures for the Relative CAT Activity (relative to CAT reporter alone) with GAL4-CBF1 (KLV249AAA), with GAL4-CBF1 (wild-type) and with GAL4CBF1 (EEF233AAA) were 1.3, 4.9 and 4.2, respectively.
The like results for “Notch2IC (from UniProt Q9QW30 1789-2471) (receptor)” were, in that order, 1.3, 5.7 and 4.5.
Turning to “full-length EBNA2 GP320SR (CR6) (from UniProt P12978 1-487)”, in the series with CBF1/RBPJk [14], the % Transactivation was 120%.
Same read-out and setting: next, “full-length EBNA2 II307SR (CR5) (from UniProt P12978 1-487)”: 20%; “full-length EBNA2 LGL389SRT (CR7) (from UniProt P12978 1-487)”: 100%.
In the series with CBF1/RBPJk [14], “full-length EBNA2 PI326SR (CR6) (from UniProt P12978 1-487)” returned a % Transactivation of 2% and a transactivation at the highest levels of effector DNA (Cp-CAT, DG75 cells) of 20%.
Substance “full-length EBNA2 SR360VD (PKC) (from UniProt P12978 1-487)” displayed a % Transactivation in the series with CBF1/RBPJk [14] of 110%.
Still for that read-out and setting: next, “full-length EBNA2 WW323SR (CR6) (from UniProt P12978 1-487)”: 0%; “full-length EBNA2 del344-357 (from UniProt P12978 1-487)”: 150%.
Still for that read-out and setting: in the case of “wild-type EBNA2 (full-length, type A) (from UniProt P12978 1-487)” it was 100%.
